Publication PMC5941314, “Structural insights into the nanomolar affinity of RING E3 ligase ZNRF1 for Ube2N and its functional implications” (Biochemical Journal, 2018)

What was measured:
Settings in all cases: both partners purified
Ube2N [1] = target: T1, Ube2N (UniProt P61088 1-152); experiment: ITC; ZNRF1^CTD in the cell, Ube2N in the syringe; 25°C; Na-phosphate pH 8.0, 450 mM NaCl; single site model
T1 construct: Ube2N, ubiquitin-conjugating enzyme E2 N; also called wtUbe2N; source: E. coli Rossetta2 (DE3), purified (ion exchange, SEC)
T1 sequence (looked up): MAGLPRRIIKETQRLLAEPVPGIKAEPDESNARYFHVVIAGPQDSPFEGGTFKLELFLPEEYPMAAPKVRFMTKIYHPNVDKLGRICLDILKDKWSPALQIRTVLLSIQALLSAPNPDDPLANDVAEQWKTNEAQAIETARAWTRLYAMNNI

Ube2N^R14A = target: T2, Ube2N^R14A (UniProt P61088 1-152, R14A); experiment: ITC; ZNRF1 construct (10–30 µM) in the cell, E2 in the syringe; 25°C; 20 mM sodium phosphate pH 8.0, 150 mM NaCl; single site model
T2 construct: Ube2N, ubiquitin-conjugating enzyme E2 N, with R14A; source: E. coli Rossetta2 (DE3), purified (ion exchange, SEC)
T2 sequence (looked up): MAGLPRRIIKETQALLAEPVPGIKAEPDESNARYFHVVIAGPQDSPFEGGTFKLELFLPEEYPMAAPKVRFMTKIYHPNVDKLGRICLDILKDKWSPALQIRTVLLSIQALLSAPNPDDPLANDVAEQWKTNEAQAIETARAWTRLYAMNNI

Ube2N [2] = target: T1, Ube2N; experiment: as above
Ube2D2 = target: T3, Ube2D2 (UniProt P62837 1-147); experiment: as above
T3 construct: Ube2D2, ubiquitin-conjugating enzyme E2 D2; also called wtUbe2D2; wild-type Ube2D2; source: E. coli Rossetta2 (DE3), purified (ion exchange, SEC)

Ube2N^A98T = target: T4, Ube2N^A98T (UniProt P61088 1-152, A98T); experiment: as above
T4 construct: Ube2N, ubiquitin-conjugating enzyme E2 N, with A98T; source: E. coli Rossetta2 (DE3), purified (ion exchange, SEC)
T4 sequence (looked up): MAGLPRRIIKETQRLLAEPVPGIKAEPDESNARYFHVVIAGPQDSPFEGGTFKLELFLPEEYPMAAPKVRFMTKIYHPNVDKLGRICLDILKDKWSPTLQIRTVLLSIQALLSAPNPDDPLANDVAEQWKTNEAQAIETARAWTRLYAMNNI

Ube2W = target: T5, Ube2W (UniProt Q96B02 1-151); experiment: as above
T5 construct: Ube2W, ubiquitin-conjugating enzyme E2 W; source: E. coli Rossetta2 (DE3), purified (ion exchange, SEC)

Ube2N^R14D = target: T6, Ube2N^R14D (UniProt P61088 1-152, R14D); experiment: as above
T6 construct: Ube2N, ubiquitin-conjugating enzyme E2 N, with R14D; source: E. coli Rossetta2 (DE3), purified (ion exchange, SEC)
T6 sequence (looked up): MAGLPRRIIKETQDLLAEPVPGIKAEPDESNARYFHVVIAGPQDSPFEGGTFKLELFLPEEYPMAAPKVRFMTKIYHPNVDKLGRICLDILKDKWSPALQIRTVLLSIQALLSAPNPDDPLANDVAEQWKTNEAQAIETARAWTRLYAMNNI

Ube2N^R14E = target: T7, Ube2N^R14E (UniProt P61088 1-152, R14E); experiment: as above
T7 construct: Ube2N, ubiquitin-conjugating enzyme E2 N, with R14E; source: E. coli Rossetta2 (DE3), purified (ion exchange, SEC)
T7 sequence (looked up): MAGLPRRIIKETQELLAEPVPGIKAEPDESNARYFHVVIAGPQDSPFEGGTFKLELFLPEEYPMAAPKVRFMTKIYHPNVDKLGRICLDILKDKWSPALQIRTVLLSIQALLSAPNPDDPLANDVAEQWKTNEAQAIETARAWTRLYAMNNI

Ube2N/Ube2V1 complex = target: T8, Ube2N/Ube2V1 complex (UniProt P61088 1-152; Q13404 1-147); experiment: as above
T8 construct: Ube2N, ubiquitin-conjugating enzyme E2 N; Ube2V1, ubiquitin-conjugating enzyme E2 variant 1; also called Ube2N/V1; source: E. coli Rossetta2 (DE3), each purified, mixed in stoichiometric amounts, complex isolated by SEC
T8 sequence (Q13404 whole entry, one chain of several): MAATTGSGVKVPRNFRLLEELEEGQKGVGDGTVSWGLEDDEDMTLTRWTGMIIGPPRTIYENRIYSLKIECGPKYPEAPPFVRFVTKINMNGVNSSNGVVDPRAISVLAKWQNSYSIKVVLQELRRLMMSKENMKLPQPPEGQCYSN

Ube2N^S96R = target: T9, Ube2N^S96R (UniProt P61088 1-152, S96R); experiment: as above
T9 construct: Ube2N, ubiquitin-conjugating enzyme E2 N, with S96R; source: E. coli Rossetta2 (DE3), purified (ion exchange, SEC)
T9 sequence (looked up): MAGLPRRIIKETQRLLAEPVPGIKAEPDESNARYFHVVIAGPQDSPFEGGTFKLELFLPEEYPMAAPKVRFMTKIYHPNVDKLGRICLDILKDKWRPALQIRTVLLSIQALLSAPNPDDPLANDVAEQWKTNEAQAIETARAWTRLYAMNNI

Ube2N [3] = target: T1, Ube2N; experiment: ITC; ZNRF1^CTD in the cell, Ube2N in the syringe; 25°C; Na-phosphate pH 8.0, 300 mM NaCl; single site model

Kd (Ube2N [1]): 225 nM | Kd (Ube2N^R14A): 320 nM | Kd (Ube2N [2]): 38.8 nM | Kd (Ube2D2): 1130 nM | Kd (Ube2N^A98T): 408 nM | Kd (Ube2W): 1090 nM | Kd (Ube2N^R14D): 948 nM | Kd (Ube2N^R14E): 1080 nM | Kd (Ube2N/Ube2V1 complex): 39.2 nM | Kd (Ube2N^S96R): 203 nM | Kd (Ube2N [3]): 171 nM
B1: ZNRF1^CTD (C-terminal domain of ZNRF1, residues 139–227) (domain or fragment, UniProt Q8ND25 139-227, looked up)
chain: SHSGFKCPICSKSVASDEMEMHFIMCLSKPRLSYNDDVLTKDAGECVICLEELLQGDTIARLPCLCIYHKSCIDSWFEVNRSCPEHPAD
notes: ZNRF1, RING E3 ubiquitin ligase, residues 139-227 of the full-length protein (ZnF and RING domains); also called ZNRF1 C-terminal domain; ZRNF1^CTD; source: E. coli Rossetta2 (DE3), purified (HisTrap, SEC)
